One experiment concerns the target human nucleolin (human) (UniProt P19338). Put plainly: fixed cell assay on fixed, permeabilised Raji cells; negative control, ambiguous fit.
The target in experiment [1] is murine nucleolin (in Colon 26 / C26 murine colon carcinoma cells) (murine) (UniProt P09405). As to the kind of experiment: fixed cell assay on fixed, permeabilised murine C26 cells; negative control.
UniProt P09405, sequence (P09405 2-707): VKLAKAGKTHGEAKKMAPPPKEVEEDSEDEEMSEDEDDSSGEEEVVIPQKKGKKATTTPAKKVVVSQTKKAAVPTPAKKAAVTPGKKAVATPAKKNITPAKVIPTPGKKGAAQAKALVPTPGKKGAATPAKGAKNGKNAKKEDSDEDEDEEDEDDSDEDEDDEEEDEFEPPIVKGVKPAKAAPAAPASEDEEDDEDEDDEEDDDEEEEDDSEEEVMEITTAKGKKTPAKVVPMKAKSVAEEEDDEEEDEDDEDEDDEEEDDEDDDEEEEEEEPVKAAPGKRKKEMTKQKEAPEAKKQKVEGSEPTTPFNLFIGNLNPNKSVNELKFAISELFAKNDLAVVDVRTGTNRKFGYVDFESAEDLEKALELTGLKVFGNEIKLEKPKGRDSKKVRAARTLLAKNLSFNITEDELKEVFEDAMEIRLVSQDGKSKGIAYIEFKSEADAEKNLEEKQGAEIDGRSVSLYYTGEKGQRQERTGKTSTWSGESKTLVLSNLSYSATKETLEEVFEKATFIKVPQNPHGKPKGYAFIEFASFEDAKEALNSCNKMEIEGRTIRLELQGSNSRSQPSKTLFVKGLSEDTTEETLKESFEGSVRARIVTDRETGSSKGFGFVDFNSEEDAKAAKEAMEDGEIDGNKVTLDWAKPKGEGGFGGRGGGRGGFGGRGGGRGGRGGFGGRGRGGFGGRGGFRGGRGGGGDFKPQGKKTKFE

UniProt P19338, sequence (P19338 2-710 limits assumed): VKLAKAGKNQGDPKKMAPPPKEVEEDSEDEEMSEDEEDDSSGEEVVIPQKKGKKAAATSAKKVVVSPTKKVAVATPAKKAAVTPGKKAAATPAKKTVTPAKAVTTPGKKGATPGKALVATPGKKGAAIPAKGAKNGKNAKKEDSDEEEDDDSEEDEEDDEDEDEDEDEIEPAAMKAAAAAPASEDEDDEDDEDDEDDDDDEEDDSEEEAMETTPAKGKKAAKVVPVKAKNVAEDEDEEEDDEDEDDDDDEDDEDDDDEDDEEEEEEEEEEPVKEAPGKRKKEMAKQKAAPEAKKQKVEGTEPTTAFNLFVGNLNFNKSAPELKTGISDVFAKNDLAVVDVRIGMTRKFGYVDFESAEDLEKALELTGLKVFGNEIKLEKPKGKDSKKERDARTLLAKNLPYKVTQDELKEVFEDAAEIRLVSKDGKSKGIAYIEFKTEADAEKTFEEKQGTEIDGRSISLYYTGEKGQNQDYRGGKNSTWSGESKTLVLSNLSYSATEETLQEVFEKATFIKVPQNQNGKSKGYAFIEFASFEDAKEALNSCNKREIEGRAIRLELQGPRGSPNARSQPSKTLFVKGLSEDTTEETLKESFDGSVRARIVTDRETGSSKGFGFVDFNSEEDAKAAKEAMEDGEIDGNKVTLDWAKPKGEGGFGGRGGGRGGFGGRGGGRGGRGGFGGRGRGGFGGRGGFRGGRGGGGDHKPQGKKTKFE

The Kd is the constant that tells how readily two partners part at equilibrium. Low values mean tighter binding, high ones weaker binding. Regarding IgG1 isotype control antibody, the Kd was 1.3 µM with human nucleolin (human) and 33.3 µM in experiment [1].
